Measured values as given in patent US20240182571A1 (OSE IMMUNOTHERAPEUTICS, published 2024).

Experiments:
[1] = molecular target: T1, PD-1 expressed on cells (UniProt Q15116 25-288); experiment: flow cytometry, 1:1 co-culture of U937 PD-1+ and U937 PD-1- cells, detection with anti-human IgG PE, % positive cells
T1 construct: whole, on cells; also called U937 PD-1+ cells; U937 PD-1+ CD127+ cells

[2] = molecular target: T2, Recombinant hPD1 (Sino Biologicals, reference 10377-H08H) (human, UniProt Q15116 25-167); experiment: ELISA, recombinant human PD-1 immobilised, anti-human Fc peroxidase
T2 construct: Bought reagent, immobilised on plastic; also called Human recombinant PD-1; rPD1
Procedure: (§1) A. PD-1 binding ELISA assay. Human recombinant PD-1 (rPD1) protein was immobilized, and antibodies were added at different concentrations. Revelation was performed with an anti-human Fc antibody coupled to peroxidase. Colorimetry was determined at 450 nm using TMB substrate. […] All constructions tested comprise a […] linker between the Fc and IL-7 domain.
For activity ELISA assay, recombinant hPD1 (Sino Biologicals, Beijing, China; reference 10377-H08H) was immobilized on plastic at 0.5 μg/ml in carbonate buffer (pH9.2) and purified antibody were added to measure binding.

[3] = molecular target: T3, biotinylated Human PD1 (AcroBiosystems, reference EP-101) (human, UniProt Q15116 25-167, limits assumed, biotinylated); experiment: competitive ELISA, PD-L1 immobilised, antibody mixed with biotinylated human PD-1; PD1/PDL1 antagonist activity
T3 construct: also called biotinylated recombinant human PD-1; Biotin-PD-1Fc
Procedure: as §1
Purified antibody (at different concentrations) were mixed with 0.66 μg/ml final (fix concentration) of biotinylated Human PD1 (AcroBiosystems; USA; reference EP-101) to measure competitive binding for 2 h at 37° C.

[4] = molecular target: T1, PD-1 expressed on cells; experiment: flow cytometry, 1:1 co-culture of U937 PD-1+ and U937 PD-1- cells, detection with anti-human IgG PE, % positive cells [middle panel]
[5] = molecular target: T1, PD-1 expressed on cells; experiment: flow cytometry (FACs analysis), U937 PD-1+ CD127+ cells co-cultured with U937 PD-1- CD127+ cells, detection with anti-human IgG PE, % cell binding
Procedure: (§2) U937 cells expressing CD127+ or co-expressing CD127+ and PD-1+ cells were stained with a cell proliferation dye (CPDe450 or CPDe670) and co-cultivated at ratio 1:1 prior incubation with different concentrations of anti PD-1 IL-7 bifunctional molecules. Staining with and anti-human IgG PE and pSTAT5 activation was quantified after incubation by flow cytometry. A. EC50 binding (nM) was calculated for each cell type and each construction. B. EC50 pSTAT5 (nM) was calculated for each cell type and each construction.
(§3) Finally, the specific cis-targeting and cis-activity of the different anti PD-1 IL-7 constructions were analyzed in a co-culture assay. U937 PD-1+ CD127+ cells were mixed with PD-1− CD127+ cells (ratio 1:1), then incubated with the different constructions at escalating doses. The binding and the IL-7R signaling (pSTAT5) was quantified by flow cytometry. EC50 (nM) of the binding and the pSTAT5 activation was determined for each construction and for each PD-1+ and PD-1− cell population (FIG. 4A and B).
(§4) U937 transduced with CD127 and PD-1 were mixed with U937 transduced with CD127+ only.

[6] = molecular target: T1, PD-1 expressed on cells; experiment: as above; remark: listed apart in the source
Procedure: as §2, §3, §4

T1 sequence (Q15116 25-288): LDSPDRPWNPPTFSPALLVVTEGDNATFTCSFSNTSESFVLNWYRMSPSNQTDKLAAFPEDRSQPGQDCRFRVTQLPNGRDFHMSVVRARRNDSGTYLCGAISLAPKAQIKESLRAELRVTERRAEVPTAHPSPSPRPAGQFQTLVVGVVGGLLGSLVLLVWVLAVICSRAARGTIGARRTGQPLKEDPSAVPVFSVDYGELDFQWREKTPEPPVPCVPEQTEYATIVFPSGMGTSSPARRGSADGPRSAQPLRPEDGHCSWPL
T2 sequence (Q15116 25-167 limits assumed): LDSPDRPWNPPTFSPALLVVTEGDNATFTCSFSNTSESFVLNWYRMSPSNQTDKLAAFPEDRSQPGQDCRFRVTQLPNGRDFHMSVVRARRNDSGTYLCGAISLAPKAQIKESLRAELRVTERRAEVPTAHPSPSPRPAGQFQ
T3 sequence (Q15116 25-167 limits assumed): as above

B1: anti PD-1*1 (antibody, human IgG1, kappa, N297A)
chain: DKTHTCPPCPAPELLGGPSVFLFPPKPKDTLMISRTPEVTCVVVDVSHEDPEVKFNWYVDGVEVHNAKTKPREEQYASTYRVVSVLTVLHQDWLNGKEYKCKVSNKALPAPIEKTISKAKGQPREPQVYTLPPCRDELTKNQVSLWCLVKGFYPSDIAVEWESNGQPENNYKTTPPVLDSDGSFFLYSKLTVDKSRWQQGNVFSCSVMHEALHNHYTQKSLSLSPGK
heavy: not shown
light: DVVMTQSPLSLPVTLGQPASISCRSSQSLVHANTNTYLEWYQQRPGQSPRLLIYKVSNRFSGVPDRFSGSGSGTDFTLKISRVEAEDVGVYYCFQGTHVPNTFGQGTKLEIKRTVAAPSVFIFPPSDEQLKSGTASVVCLLNNFYPREAKVQWKVDNALQSGNSQESVTEQDSKDSTYSLSSTLTLSKADYEKHKVYACEVTHQGLSSPVTKSFNRGEC
notes: One-armed control: like construction 3 but without IL-7; Chain A is the Fc chain (knob), chain B the anti PD-1 heavy chain (hole)
EC50 (read off the curve) [1]: ~0.02 nM | EC50 [2]: 0.238 nM | EC50 [3]: 5.01 nM

B2: anti PD-1*2 (antibody, human IgG4 S228P, kappa, V domains shown)
VH: QIQLVQSGSELKKPGASVKVSCKASGYTFTHYAMNWVRQAPGQGLEWMGWINTNTGEPTYAQGFTGRFVFSLDTSVSTAYLQISSLKAEDTAVYYCAREREPGMDNWGQGTLVTVSS
VL: DVVMTQSPLSLPVTLGQPASISCRSSQSLVHANTNTYLEWYQQRPGQSPRLLIYKVSNRFSGVPDRFSGSGSGTDFTLKISRVEAEDVGVYYCFQGTHVPNTFGQGTKLEIKR
notes: Anti PD-1 antibody with 2 anti PD-1 arms and no cytokine; also called anti PD-1 alone; anti PD-1 control
EC50 (read off the curve) [4]: ~0.005 nM | EC50 [2]: 0.021 nM | EC50 (read off the curve) [5]: ~0.02 nM | EC50 (read off the curve) [6]: ~0.02 nM
